This is an account of results in patent US12377158.

Positions of bridges follow the written chain, without caps; N, C: chain ends. No end group written: not given here.

Assay [1] concerns the target Native human Albumin Protein (human) (UniProt P02768). The assay is described as follows: SPR (Nicoya OpenSPR), human albumin immobilised on COOH chip, mouse klotho as analyte at 0-40 nM.
Assay [2] deals with canine albumins (canine) (UniProt P49822). Description: method not stated.
UniProt P49822, sequence (P49822 25-608 limits assumed): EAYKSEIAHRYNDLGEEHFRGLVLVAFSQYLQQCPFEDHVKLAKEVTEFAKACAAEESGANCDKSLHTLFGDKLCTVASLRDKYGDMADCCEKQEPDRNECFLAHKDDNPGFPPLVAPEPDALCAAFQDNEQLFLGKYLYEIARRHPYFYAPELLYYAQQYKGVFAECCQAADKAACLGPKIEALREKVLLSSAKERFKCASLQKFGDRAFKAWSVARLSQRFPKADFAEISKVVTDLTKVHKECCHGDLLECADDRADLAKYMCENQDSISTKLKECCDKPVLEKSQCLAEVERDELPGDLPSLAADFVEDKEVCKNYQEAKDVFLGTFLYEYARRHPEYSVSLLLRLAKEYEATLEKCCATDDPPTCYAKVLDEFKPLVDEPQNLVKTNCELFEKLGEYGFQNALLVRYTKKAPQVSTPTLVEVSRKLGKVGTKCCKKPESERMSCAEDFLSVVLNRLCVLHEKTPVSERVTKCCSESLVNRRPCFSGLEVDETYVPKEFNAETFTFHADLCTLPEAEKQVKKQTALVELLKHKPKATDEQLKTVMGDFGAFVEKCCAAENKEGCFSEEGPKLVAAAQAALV

In assay [1], “Mouse klotho protein (from UniProt O35082 35-982)” registered a Kd of 7.94 nM, an off-rate (koff) of 0.00681 s⁻¹ and a kon of 858000 M⁻¹ s⁻¹.

B1: alpha Klotho with the albumin binding construct … (SEQ ID NO: 4) attached to the terminal end (peptide, not shown: small tags and cut ends)
peptide: GGSGGSGGSGGRLIEDICLPRWGCLWEDD
modifications: disulfide 18-24 (inferred); also: fused to alpha Klotho, terminus not given here
In assay [2], B1 displayed a Kd of under 19 nM.

By Kd is commonly meant the free concentration of one partner at which half of the binding sites on the other are occupied at equilibrium, for simple one-to-one binding. As a reminder, the koff is the rate constant with which the complex falls apart. Read a high koff as fast dissociation. By kon is commonly meant a measure of how fast the partners come together. A low value points to slower complex formation.
